The values that follow come from PMC13101046 (Journal of molecular biology, 2025).

Sequences and labels used below:
B2: RecC (natural protein, E. coli)
chain: MLRVYHSNRLDVLEALMEFIVERERLDDPFEPEMILVQSTGMAQWLQMTLSQKFGIAANIDFPLPASFIWDMFVRVLPEIPKESAFNKQSMSWKLMTLLPQLLEREDFTLLRHYLTDDSDKRKLFQLSSKAADLFDQYLVYRPDWLAQWETGHLVEGLGEAQAWQAPLWKALVEYTHQLGQPRWHRANLYQRFIETLESATTCPPGLPSRVFICGISALPPVYLQALQALGKHIEIHLLFTNPCRYYWGDIKDPAYLAKLLTRQRRHSFEDRELPLFRDSENAGQLFNSDGEQDVGNPLLASWGKLGRDYIYLLSDLESSQELDAFVDVTPDNLLHNIQSDILELENRAVAGVNIEEFSRSDNKRPLDPLDSSITFHVCHSPQREVEVLHDRLLAMLEEDPTLTPRDIIVMVADIDSYSPFIQAVFGSAPADRYLPYAISDRRARQSHPVLEAFISLLSLPDSRFVSEDVLALLDVPVLAARFDITEEGLRYLRQWVNESGIRWGIDDDNVRELELPATGQHTWRFGLTRMLLGYAMESAQGEWQSVLPYDESSGLIAELVGHLASLLMQLNIWRRGLAQERPLEEWLPVCRDMLNAFFLPDAETEAAMTLIEQQWQAIIAEGLGAQYGDAVPLSLLRDELAQRLDQERISQRFLAGPVNICTLMPMRSIPFKVVCLLGMNDGVYPRQLAPLGFDLMSQKPKRGDRSRRDDDRYLFLEALISAQQKLYISYIGRSIQDNSERFPSVLVQELIDYIGQSHYLPGDEALNCDESEARVKAHLTCLHTRMPFDPQNYQPGERQSYAREWLPAASQAGKAHSEFVQPLPFTLPETVPLETLQRFWAHPVRAFFQMRLQVNFRTEDSEIPDTEPFILEGLSRYQINQQLLNALVEQDDAERLFRRFRAAGDLPYGAFGEIFWETQCQEMQQLADRVIACRQPGQSMEIDLACNGVQITGWLPQVQPDGLLRWRPSLLSVAQGMQLWLEHLVYCASGGNGESRLFLRKDGEWRFPPLAAEQALHYLSQLIEGYREGMSAPLLVLPESGGAWLKTCYDAQNDAMLDDDSTLQKARTKFLQAYEGNMMVRGEGDDIWYQRLWRQLTPETMEAIVEQSQRFLLPLFRFNQS
notes: RecC, E. coli, wild type; Called wild type; source: purified as part of the RecBCD or RecB^ΔNucCD hetero-trimer

Values joined by “and” are separate entries in the source; they are usually repeats but may differ in a detail not shown here. Identical values can stand only once.

Data set [1] has as its target T1, RecBΔNucCD RecB:del930-1180 (E. coli) (UniProt P08394+P07648+P04993). The data set can be described thus: competition fluorescence titration. The conditions noted are these: Buffer M275-10: 20 mM MOPS pH 7.0, 275 mM NaCl, 10 mM MgCl2, 25 °C (M50-10: 50 mM NaCl); cryo-EM buffer 20 mM Tris pH 7.4, 50 mM NaCl, 4 mM MgCl2.
For another data set, the system named is RecBCD (E. coli). The experiment in a line: competition fluorescence titration. To be noted: Buffer M275-10: 20 mM MOPS pH 7.0, 275 mM NaCl, 10 mM MgCl2, 25 °C (M50-10: 50 mM NaCl); cryo-EM buffer 20 mM Tris pH 7.4, 50 mM NaCl, 4 mM MgCl2.
The target of data set [2] is T1, RecBΔNucCD RecB:del930-1180 (E. coli). The experiment in a line: ITC. To be noted: Buffer M275-10: 20 mM MOPS pH 7.0, 275 mM NaCl, 10 mM MgCl2, 25 °C (M50-10: 50 mM NaCl); cryo-EM buffer 20 mM Tris pH 7.4, 50 mM NaCl, 4 mM MgCl2.
The data set “RecC” has as its target B2. The experiment in a line: AUC; sedimentation velocity, c(s) distribution; 200 nM protein, Buffer M50-10 (20 mM MOPS pH 7.0, 50 mM NaCl, 10 mM MgCl2), 25 °C, 42,000 rpm, absorbance at 280 nm. To be noted: both partners purified.
Another data set addresses T2, RecB (E. coli, UniProt P08394 1-1180).
T2 construct: RecB, E. coli, full length (134 kDa); also called full length RecB; source: purified as part of the RecBCD hetero-trimer
T2 sequence (looked up): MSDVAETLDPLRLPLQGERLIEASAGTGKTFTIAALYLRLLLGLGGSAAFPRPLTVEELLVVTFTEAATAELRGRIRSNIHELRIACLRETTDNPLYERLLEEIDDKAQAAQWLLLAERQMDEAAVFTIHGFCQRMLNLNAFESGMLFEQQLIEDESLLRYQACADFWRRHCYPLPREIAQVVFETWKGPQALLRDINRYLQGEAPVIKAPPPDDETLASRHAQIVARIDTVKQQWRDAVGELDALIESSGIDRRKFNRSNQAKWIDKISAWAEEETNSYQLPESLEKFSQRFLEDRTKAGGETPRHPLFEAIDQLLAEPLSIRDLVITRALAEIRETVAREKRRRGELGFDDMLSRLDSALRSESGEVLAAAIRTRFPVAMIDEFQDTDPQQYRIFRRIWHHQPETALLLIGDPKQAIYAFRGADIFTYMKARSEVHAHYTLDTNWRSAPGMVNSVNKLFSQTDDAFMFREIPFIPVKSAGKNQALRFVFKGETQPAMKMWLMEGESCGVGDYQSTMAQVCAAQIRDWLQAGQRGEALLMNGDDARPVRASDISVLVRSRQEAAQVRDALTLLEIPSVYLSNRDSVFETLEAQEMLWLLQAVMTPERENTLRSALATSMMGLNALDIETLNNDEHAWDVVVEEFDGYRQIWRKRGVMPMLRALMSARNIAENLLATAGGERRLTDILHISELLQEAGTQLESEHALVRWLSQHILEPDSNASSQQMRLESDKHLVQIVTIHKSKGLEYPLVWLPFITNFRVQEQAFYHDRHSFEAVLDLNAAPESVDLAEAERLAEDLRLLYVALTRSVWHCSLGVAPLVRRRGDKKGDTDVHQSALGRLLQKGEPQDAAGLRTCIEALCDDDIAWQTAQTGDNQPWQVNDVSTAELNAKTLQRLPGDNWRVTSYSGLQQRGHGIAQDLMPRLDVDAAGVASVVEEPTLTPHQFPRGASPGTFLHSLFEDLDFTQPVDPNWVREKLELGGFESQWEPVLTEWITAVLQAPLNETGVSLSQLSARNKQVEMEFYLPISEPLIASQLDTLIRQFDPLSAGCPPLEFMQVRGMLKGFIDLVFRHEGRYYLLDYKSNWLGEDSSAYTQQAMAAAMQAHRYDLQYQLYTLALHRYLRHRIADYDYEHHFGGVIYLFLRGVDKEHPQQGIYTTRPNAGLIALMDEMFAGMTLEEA
The data set is described as above. The conditions noted are these: both partners purified.

Take 3'-dT2: the figures for the Ka (in data set [1]; in the data set on RecBCD (E. coli)) were 9.6e+07 M⁻¹ and 2.1e+07 M⁻¹, respectively.

As to 3'-dT4, the Ka in data set [1] was found to be 3.3e+08 M⁻¹; in the data set with RecBCD (E. coli), 4.7e+07 M⁻¹.

As for 3'-dT6, the figures for the Ka (in data set [1]; with RecBCD (E. coli)) were 9.5e+08 M⁻¹ and 1.1e+08 M⁻¹, respectively.

Molecule 3'-dT8 displayed a Ka in data set [1] of 7.2e+08 M⁻¹.

For 3'-dT10, the Ka worked out at 5.9e+08 M⁻¹ in data set [1] and 5e+07 M⁻¹ in the data set on RecBCD (E. coli).

Turning to 3'-dT15, the Ka amounted to 6e+07 M⁻¹ in data set [1] and 1e+07 M⁻¹ with RecBCD (E. coli).

For 5'-dT6, the Ka in data set [1] was found to be 1.4e+08 M⁻¹; in the data set on RecBCD (E. coli), 1.1e+08 M⁻¹.

5'-dT8 came in with a Ka in data set [1] of 2.3e+08 M⁻¹.

Take 5'-dT10: the Ka was found to be 6.4e+08 M⁻¹ in data set [1] and 2.2e+08 M⁻¹ with RecBCD (E. coli).

On to 5'-dT15, for which the values for the Ka (in data set [1]; with RecBCD (E. coli)) were 6.5e+08 M⁻¹ and 2.3e+08 M⁻¹, respectively.

Turning to blunt ended 60 bp DNA, the figures for the Ka (in data set [1]; in the data set with RecBCD (E. coli)) were 4.7e+07 M⁻¹ and 1.4e+07 M⁻¹, respectively.

For the molecule dT4-dT4, the Ka in data set [2] is greater than 1e+09 M⁻¹.

dT6-dT6 had a Ka in data set [2] greater than 1e+09 M⁻¹.

As for dT10-dT10, in data set [2], the Ka was greater than 1e+09 M⁻¹.

As to dT15-dT15, the Ka in data set [2] was greater than 1e+09 M⁻¹.

dT20-dT20: in data set [2], the Ka is greater than 1e+09 M⁻¹.

dT25-dT25: the Ka in data set [2] is greater than 1e+09 M⁻¹.

dT30-dT30: the Ka in data set [2] is 6.8e+08 M⁻¹ and > 1e+09 M⁻¹.

B1: RecB^ΔNuc (RecB with the nuclease domain, residues 930-1180, deleted) (domain or fragment, E. coli, UniProt P08394 1-929, looked up)
chain: MSDVAETLDPLRLPLQGERLIEASAGTGKTFTIAALYLRLLLGLGGSAAFPRPLTVEELLVVTFTEAATAELRGRIRSNIHELRIACLRETTDNPLYERLLEEIDDKAQAAQWLLLAERQMDEAAVFTIHGFCQRMLNLNAFESGMLFEQQLIEDESLLRYQACADFWRRHCYPLPREIAQVVFETWKGPQALLRDINRYLQGEAPVIKAPPPDDETLASRHAQIVARIDTVKQQWRDAVGELDALIESSGIDRRKFNRSNQAKWIDKISAWAEEETNSYQLPESLEKFSQRFLEDRTKAGGETPRHPLFEAIDQLLAEPLSIRDLVITRALAEIRETVAREKRRRGELGFDDMLSRLDSALRSESGEVLAAAIRTRFPVAMIDEFQDTDPQQYRIFRRIWHHQPETALLLIGDPKQAIYAFRGADIFTYMKARSEVHAHYTLDTNWRSAPGMVNSVNKLFSQTDDAFMFREIPFIPVKSAGKNQALRFVFKGETQPAMKMWLMEGESCGVGDYQSTMAQVCAAQIRDWLQAGQRGEALLMNGDDARPVRASDISVLVRSRQEAAQVRDALTLLEIPSVYLSNRDSVFETLEAQEMLWLLQAVMTPERENTLRSALATSMMGLNALDIETLNNDEHAWDVVVEEFDGYRQIWRKRGVMPMLRALMSARNIAENLLATAGGERRLTDILHISELLQEAGTQLESEHALVRWLSQHILEPDSNASSQQMRLESDKHLVQIVTIHKSKGLEYPLVWLPFITNFRVQEQAFYHDRHSFEAVLDLNAAPESVDLAEAERLAEDLRLLYVALTRSVWHCSLGVAPLVRRRGDKKGDTDVHQSALGRLLQKGEPQDAAGLRTCIEALCDDDIAWQTAQTGDNQPWQVNDVSTAELNAKTLQRLPGDNWRVTSYSGLQQRGHGIAQDLMPRLDVDAA
notes: RecB, E. coli; the C-terminal nuclease domain RecB^Nuc (RecB930-1180) is deleted, the deletion starts at amino acid 930 and leaves the whole linker (870-929) intact; runs at 105 kDa; Subunit of the RecB^ΔNucCD hetero-trimer; source: purified to homogeneity as part of the RecB^ΔNucCD hetero-trimer, as described previously for RecBCD
B1: the binding result with RecC was “binds”.

As to B2, the binding result with RecB is given as “binds”.

B3: RecD (natural protein, E. coli)
chain: MKLQKQLLEAVEHKQLRPLDVQFALTVAGDEHPAVTLAAALLSHDAGEGHVCLPLSRLENNEASHPLLATCVSEIGELQNWEECLLASQAVSRGDEPTPMILCGDRLYLNRMWCNERTVARFFNEVNHAIEVDEALLAQTLDKLFPVSDEINWQKVAAAVALTRRISVISGGPGTGKTTTVAKLLAALIQMADGERCRIRLAAPTGKAAARLTESLGKALRQLPLTDEQKKRIPEDASTLHRLLGAQPGSQRLRHHAGNPLHLDVLVVDEASMIDLPMMSRLIDALPDHARVIFLGDRDQLASVEAGAVLGDICAYANAGFTAERARQLSRLTGTHVPAGTGTEAASLRDSLCLLQKSYRFGSDSGIGQLAAAINRGDKTAVKTVFQQDFTDIEKRLLQSGEDYIAMLEEALAGYGRYLDLLQARAEPDLIIQAFNEYQLLCALREGPFGVAGLNERIEQFMQQKRKIHRHPHSRWYEGRPVMIARNDSALGLFNGDIGIALDRGQGTRVWFAMPDGNIKSVQPSRLPEHETTWAMTVHKSQGSEFDHAALILPSQRTPVVTRELVYTAVTRARRRLSLYADERILSAAIATRTERRSGLAALFSSRE
notes: RecD, E. coli, wild type; Called wild type; Most of RecD has only weak density in the structures solved here; source: purified as part of the RecBCD or RecB^ΔNucCD hetero-trimer
As to B3, in the data set with RecC, the binding result is given as “binds”.
